Reference: article PMC7537338 (2020)
Where no end group is shown, it is not given here.

How the values were obtained:
[1] = molecular target: T1, mouse CD47-IgV-Domain-hIg fusion protein (mouse, UniProt Q61735 19-140); assay: FACS; competition with mouse SIRPα on CHO cells
T1 chain: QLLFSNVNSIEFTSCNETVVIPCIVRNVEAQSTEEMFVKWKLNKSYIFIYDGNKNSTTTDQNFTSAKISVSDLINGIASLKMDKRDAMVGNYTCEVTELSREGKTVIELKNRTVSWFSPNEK

[2] = molecular target: human CD47-IgV-Domain-hIg fusion protein (human, UniProt Q08722 19-141); assay: FACS; competition with human SIRPα on CHO cells
Chain of human CD47-IgV-Domain-hIg fusion protein (Q08722 19-141): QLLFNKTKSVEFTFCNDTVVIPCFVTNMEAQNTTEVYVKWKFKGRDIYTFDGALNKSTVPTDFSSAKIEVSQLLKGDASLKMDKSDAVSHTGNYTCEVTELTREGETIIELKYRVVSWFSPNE

B1: pep-20-D12 (peptide)
chain: AWSATWSNYWRH
modifications: also: three D-amino acid residues substituted at N- and C-terminal, places not given here
**Q.** With B1 as the binder, how does the IC50 [1] read?
**A.** The IC50 was 18.2 µM.

**Q.** And the IC50 [2]?
**A.** The IC50 was 12.1 µM.
